Patent publication US20050058983A1

Target: HIVSF162 Env on pseudotyped virions (HIV-1 SF162) (UniProt P19550)
Assay: cell-based or functional assay

## human Mab 697D (antibody)
  ND50: 80 µg/mL
